Assay [1] concerns the target β-arrestin2 (UniProt P32121). The assay can be described thus: bystander BRET, β-arrestin2-Rluc2 to membrane GFP-CAAX. The conditions noted are these: for percent of reference: reference: wild type. In general terms: BRET reads energy transfer from a luciferase to a nearby fluorophore.
The target in assay [2] is β-arrestin2 (UniProt P32121). The assay can be described thus: direct BRET, D1R-Rluc8 and β-arrestin2-mVenus. The note with it: reference: wild type.
For assay [3], the target named is β-arrestin2 (UniProt P32121). The assay can be described thus: β-arrestin recruitment BRET, type not stated. The conditions noted are these: reference: wild type; sites S417,S421,T428,S431,T439,S441,S445,T446. For orientation: Activated receptors often draw arrestin, which recruitment assays turn into a signal.
Setting [4] is: sites S256,S258,S259,T360,S362,S372,S373,S380,T428,S431,T439,S441,S445,T446.

In the case of “D1 dopamine receptor (D1R) (from UniProt P18901) GRK-null (14 GRK sites mutated)”, the percent of reference result with β-arrestin2 [1] (setting [4]) and with β-arrestin2 [2] (setting [4]) was “lost; reference 100” each time. Consider “D1 dopamine receptor (D1R) (from UniProt P18901) PKC-null”, for which the “other: Emax, % of WT D1R” value with β-arrestin2 [1] (reference: PKC-null + A259S (S259 restored), sites S259) is “same; reference 59 ± 9.4”. For the substance “D1 dopamine receptor (D1R) (from UniProt P18901) PKC-null (S259A/S397A/S398A/S417A/S421A)”, the percent of reference result with β-arrestin2 [1] (sites S259,S397,S398,S417,S421) was “weaker; reference 100”.

Consider “D1 dopamine receptor (D1R) (from UniProt P18901) S2/S3/S4 mutant (S256A/S258A/S259A)”, for which the percent of reference entry in the assay with β-arrestin2 [1] (sites S256,S258,S259) is “weaker; reference 100”.

Consider “D1 dopamine receptor (D1R) (from UniProt P18901) S6A (S362A)”, for which the percent of reference entry with β-arrestin2 [2] (sites S362) was “weaker; reference 100”.

With “D1 dopamine receptor (D1R) (from UniProt P18901) S13–S20 mutant (8 distal C-terminal S/T mutated)”, in the assay with β-arrestin2 [3], the percent of reference entry was “weaker; reference 100”. On to “D1 dopamine receptor (D1R) (from UniProt P18901) T5V (T360V)”, for which the percent of reference entry with β-arrestin2 [2] (sites T360) is listed as “weaker; reference 100”. Take “D1 dopamine receptor (D1R) (from UniProt P18901) T5V/S6A (T360V/S362A)”: the percent of reference entry in the assay with β-arrestin2 [1] (sites T360,S362) and with β-arrestin2 [2] (sites T360,S362) was “weaker; reference 100” each time. Regarding “D1 dopamine receptor (D1R) (from UniProt P18901) Tail Total (all 20 C-terminal S/T mutated)”, the percent of reference entry with β-arrestin2 [2] (sites S342,T343,T353,T354,T360,S362,S372,S373,S380,S382,S397,S398,S417,S421,T428,S431,T439,S441,S445,T446) is reported as “weaker; reference 100”.

“D1 dopamine receptor (D1R) T1 truncation, stop after 370 (from UniProt P18901) D1R T1 + T5V/S6A”: the “other: Emax, % of full-length WT D1R” value with β-arrestin2 [1] (reference: D1R T1 truncation, sites T360,S362) is on record as “weaker; reference 112 ± 5.1”.
